Measurements: patent US20140120095A1 (Boehringer Ingelheim, published 2014)

T1: recombinant human VEGF121 (human, UniProt P15692-9 27-147)
T1 construct: also called rhVEGF121
T1 sequence (looked up): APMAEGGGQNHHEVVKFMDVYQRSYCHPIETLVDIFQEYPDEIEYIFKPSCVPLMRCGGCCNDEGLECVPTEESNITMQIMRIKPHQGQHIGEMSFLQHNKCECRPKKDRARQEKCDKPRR

T2: recombinant mouse VEGF164 (mouse, UniProt Q00731-2 27-190, biotinylated as the labelled ligand of the mVEGF164/mVEGFR2 AlphaScreen)
T2 construct: also called mVEGF164; rmVEGF164
T2 sequence (looked up): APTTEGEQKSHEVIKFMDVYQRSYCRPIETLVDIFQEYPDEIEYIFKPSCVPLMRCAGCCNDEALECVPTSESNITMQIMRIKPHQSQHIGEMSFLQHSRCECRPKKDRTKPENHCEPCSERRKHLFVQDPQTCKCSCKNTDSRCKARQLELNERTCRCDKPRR


Assays:
VEGF = VEGF (UniProt P15692-4 27-191, limits assumed); test: cell-based or functional assay
[1] = target: DII4-His (C-terminal His-tagged human DII4, amino acid 27-524) (human, UniProt Q9NR61 25-522); test: cell-based or functional assay
[2] = target: T3, VEGF (used to stimulate HUVEC cells) (UniProt P15692-4 27-191, limits assumed); test: cell-based or functional assay
[3] = target: T3, VEGF (used to stimulate HUVEC cells); test: cell-based or functional assay; remark: listed apart in the source
[4] = target: T4, recombinant human VEGF165 (human, UniProt P15692-4 27-191, biotinylated in the competition assays); test: binding ELISA, coated rhVEGF165
T4 construct: Bought protein; also called hVEGF165; rhVEGF165

[5] = target: T1, recombinant human VEGF121; test: binding ELISA, coated rhVEGF121
Experimental: Binding to recombinant human VEGF121 is assessed via a solid phase binding ELISA. […] Wells are blocked with a casein solution (1% in PBS).

[6] = target: T4, recombinant human VEGF165; test: ELISA, hVEGF165/hVEGFR2-Fc competition; set-up: % inhibition: concentration or dose not given beside the values
[7] = target: T4, recombinant human VEGF165; test: ELISA, hVEGF165/hVEGFR1-Fc competition; set-up: % inhibition: concentration or dose not given beside the values
[8] = target: T4, recombinant human VEGF165; test: AlphaScreen, hVEGF165/hVEGFR2-Fc competition; set-up: % inhibition: concentration or dose not given beside the values
Experimental: (§1) Finally, streptavidin donor beads (20 μg/ml) are added and after 1 hour of incubation in the dark, fluorescence is measured on the Envision microplate reader.

[9] = target: T4, recombinant human VEGF165; test: AlphaScreen, hVEGF165/hVEGFR1-Fc competition; set-up: % inhibition: concentration or dose not given beside the values
Experimental: as §1

[10] = target: T4, recombinant human VEGF165; test: SPR Biacore, immobilised hVEGF165, two state reaction model
Experimental: Samples are injected for 2 min and allowed to dissociate up to 20 min at a flow rate of 45 μl/min. In between sample injections, the chip surface is regenerated with 100 mM HCl. HBS-EP+(Hepes buffer pH7.4+EDTA) is used as running buffer. Binding curves are fitted using a Two State Reaction model by Biacore T100 Evaluation Software v2.0.1.
^{(a)}KD = kd1/kₐ₁ * (kd2/(kd2 + kₐ₂)) ^{(b)}Curves are fitted using a Two State Reaction model by Biacore T100 Evaluation Software v2.0.1

[11] = target: T2, recombinant mouse VEGF164; test: binding ELISA on coated recombinant mouse VEGF164 (Example 12.6), OD 450 nm
Experimental: Cross-reactivity to mouse VEGF164 is determined using a binding ELISA. […] Wells are blocked with a casein solution (1% in PBS). […] A mouse VEGF164 reactive mAb is included as positive control.

[12] = target: T4, recombinant human VEGF165; test: AlphaScreen, hVEGF165/hVEGFR1-Fc competition
Experimental: as §1

[13] = target: T4, recombinant human VEGF165; test: AlphaScreen, hVEGF165/hVEGFR2-Fc competition
Experimental: as §1

[14] = target: T5, human DLL4, full length, overexpressed on cells (human, UniProt Q9NR61 27-685); test: FMAT, hNotch1-Fc on CHO-hDLL4, -HSA
T5 construct: CHO cells in FMAT, HEK293 cells in the reporter assay; also called hDLL4; CHO-hDLL4

[15] = target: T5, human DLL4, full length, overexpressed …; test: FMAT, hNotch1-Fc on CHO-hDLL4, +25 uM HSA
[16] = target: T4, recombinant human VEGF165; test: AlphaScreen, hVEGF165/hVEGFR1-Fc competition, -HSA
[17] = target: T4, recombinant human VEGF165; test: AlphaScreen, hVEGF165/hVEGFR2-Fc competition, -HSA
[18] = target: T4, recombinant human VEGF165; test: AlphaScreen, hVEGF165/hVEGFR2-Fc competition, +5 uM HSA
Experimental: These 2 competition assays are also performed after preincubation of the VHHs with 5 μM human serum albumin.

T3 sequence (P15692 other isoform, or with tags, fused parts or gaps limits assumed): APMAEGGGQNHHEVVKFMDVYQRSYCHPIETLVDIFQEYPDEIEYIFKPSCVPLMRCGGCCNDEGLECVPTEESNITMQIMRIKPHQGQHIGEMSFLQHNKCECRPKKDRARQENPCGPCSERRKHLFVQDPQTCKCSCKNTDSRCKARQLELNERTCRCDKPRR
Chain of VEGF (P15692 other isoform, or with tags, fused parts or gaps limits assumed): as above

% inhibition, VEGF HUVEC Erk phosphorylation assay [3] [%] | IC50, VEGF HUVEC Erk phosphorylation assay [3] [nM] | EC50 [4] [nM] | EC50 [5] [nM] | % inhibition [6] [%] | IC50 [6] [nM] | % inhibition [8] [%] | IC50 [8] [nM] | % inhibition [9] [%] | IC50 [9] [nM] | Kd [10] [nM] | ka1 [10] [M⁻¹ s⁻¹] | ka2 [10] [s⁻¹] | kd1 [10] [s⁻¹] | kd2 [10] [s⁻¹] | binding result [11] | Binder | further results
 |  |  |  |  |  |  |  |  |  |  |  |  |  |  |  | VEGFDLLBII015 (bispecific antibody, PEGylated 35gs, cys15 linker (PEG on the Cys at position 15 of the 35 Gly-Ser linker; size of the PEG not stated)) EVQLVESGGGLVQTGDSLRLSCEVSGRTFSSYSMGWFRQAQGKEREFVVAISKGGYKYDSVSLEGRFTISKDNAKNTVYLQINSLKPEDTAVYYCASSRAYGSSRLRLADTYEYWGQGTQVTVSSGGGGSGGGGSGGGGCGGGGSGGGGSGGGGSGGGGSEVQLVESGGGLVQPGGSLRLSCVASGIRFMSMAWYRQAPGKHRELVARISSGGTTAYVDSVKGRFTISRDNSKNTVYLQMNSLKAEDTAVYYCNTFSSRPNPWGAGTQVTVSSGGGGSGGGGSGGGGSGGGGSGGGGSGGGGSGGGGSEVQLVESGGGLVQAGGSLRLSCAASGRTFSSYAMAWYRQAPGKEREYVAAIRWSGGTAYYADSVQGRFTISRDNAKNTVYLQMNSLKPEDTAVYYCANRAPDTRLAPYEYDHWGQGTQVTVSS | % inhibition, VEGF HUVEC Erk phosphorylation assay, -HSA (VEGF): 106%; IC50 (nM), VEGF HUVEC Erk phosphorylation assay, -HSA (VEGF): 0.4 nM; IC50 (nM), DII4-mediated HUVEC proliferation assay, -HSA [1]: 0.28 nM
92 | 0.19 | 0.428 | 0.92 | 100 | 0.049 | 100 | 0.016 | 70 | 0.021 | 0.16 | 450000 | 0.029 | 0.017 | 0.00013 | binds | VEGFBII010 (VHH, not shown: small tags and cut ends, Homodimeric bivalent anti-VEGF VHH; also called VEGFBII23B04-35GS-23B04) EVQLVESGGGLVQTGDSLRLSCEVSGRTFSSYSMGWFRQAQGKEREFVVAISKGGYKYDSVSLEGRFTISKDNAKNTVYLQINSLKPEDTAVYYCASSRAYGSSRLRLADTYEYWGQGTQVTVSSGGGGSGGGGSGGGGSGGGGSGGGGSGGGGSGGGGSEVQLVESGGGLVQTGDSLRLSCEVSGRTFSSYSMGWFRQAQGKEREFVVAISKGGYKYDSVSLEGRFTISKDNAKNTVYLQINSLKPEDTAVYYCASSRAYGSSRLRLADTYEYWGQGTQVTVSS | % inhibition, VEGF HUVEC proliferation assay [2]: 95%; IC50, VEGF HUVEC proliferation assay [2]: 0.22 nM; % inhibition [7]: 67%; IC50 [7]: 0.0735 nM
 |  |  |  |  |  |  |  |  |  |  |  |  |  |  |  | VEGFDLLBII014 (bispecific antibody, PEGylated 35gs, cys15 linker (PEG on the Cys at position 15 of the 35 Gly-Ser linker; size of the PEG not stated)) EVQLVESGGGLVQTGDSLRLSCEVSGRTFSSYSMGWFRQAQGKEREFVVAISKGGYKYDSVSLEGRFTISKDNAKNTVYLQINSLKPEDTAVYYCASSRAYGSSRLRLADTYEYWGQGTQVTVSSGGGGSGGGSEVQLVESGGGLVQPGGSLRLSCVASGIRFMSMAWYRQAPGKHRELVARISSGGTTAYVDSVKGRFTISRDNSKNTVYLQMNSLKAEDTAVYYCNTFSSRPNPWGAGTQVTVSSGGGGSGGGGSGGGGCGGGGSGGGGSGGGGSGGGGSEVQLVESGGGLVQAGGSLRLSCAASGRTFSSYAMAWYRQAPGKEREYVAAIRWSGGTAYYADSVQGRFTISRDNAKNTVYLQMNSLKPEDTAVYYCANRAPDTRLAPYEYDHWGQGTQVTVSS | % inhibition, VEGF HUVEC Erk phosphorylation assay, -HSA (VEGF): 101%; IC50 (nM), VEGF HUVEC Erk phosphorylation assay, -HSA (VEGF): 0.53 nM; IC50 (nM), DII4-mediated HUVEC proliferation assay, -HSA [1]: 0.53 nM
94 | 0.23 | 0.32 | 0.325 | 100 | 0.292 | 100 | 0.05 | 98 | 0.069 | 0.47 | 300000 | 0.026 | 0.013 | 0.00028 | binds | VEGFBII024 (VHH, not shown: small tags and cut ends, Bivalent anti-VEGF VHH; also called VEGFBII23B04-40GS-86H09) EVQLVESGGGLVQTGDSLRLSCEVSGRTFSSYSMGWFRQAQGKEREFVVAISKGGYKYDSVSLEGRFTISKDNAKNTVYLQINSLKPEDTAVYYCASSRAYGSSRLRLADTYEYWGQGTQVTVSSGGGGSGGGGSGGGGSGGGGSGGGGSGGGGSGGGGSGGGGSEVQLVESGGGLVQAGGSLRLSCTASGSAFKSYRMGWFRRTPGKEDEFVASISWTYGSTFYADSVKGRFTMSRDKAKNAGYLQMNSLKPEDTALYYCAAGAQSDRYNIRSYDYWGQGTQVTVSS | % inhibition, VEGF HUVEC proliferation assay [2]: 96%; IC50, VEGF HUVEC proliferation assay [2]: 0.38 nM; % inhibition [7]: 92%; IC50 [7]: 0.326 nM; % inhibition [12]: 100%; IC50 [12]: 0.046 nM; IC50 [13]: 0.012 nM
 |  |  |  |  |  |  |  |  |  |  |  |  |  |  |  | VEGFDLLBII002 (bispecific antibody, PEGylated at the Cys at position 15 of the 35 Gly-Ser linker, VEGFBII23B04 - 35GS(Cys15) - DLLBII101G08) EVQLVESGGGLVQTGDSLRLSCEVSGRTFSSYSMGWFRQAQGKEREFVVAISKGGYKYDSVSLEGRFTISKDNAKNTVYLQINSLKPEDTAVYYCASSRAYGSSRLRLADTYEYWGQGTQVTVSSGGGGSGGGGSGGGGCGGGGSGGGGSGGGGSGGGGSEVQLVESGGGLVQAGGSLRLSCAASGRTFSSYAMAWFRQAPGKEREFVAAIRWSGGTAYYADSVQGRFTISRDNAKNTVYLQMNSLKPEDTAVYYCANRAADTRLGPYEYDYWGQGTQVTVSS | IC50 [14]: 106 nM; IC50 [15]: 120 nM; % inh [16]: 64%; IC50 [16]: 0.36 nM; % inh [17]: 100%; IC50 [17]: 0.2 nM; % inh [18]: 100%; IC50 [18]: 0.24 nM
99 | 0.23 | 0.668 | 0.475 | 100 | 0.577 | 100 | 0.051 | 82 | 0.071 | 1.1 | 330000 | 0.018 | 0.017 | 0.00037 | binds | VEGFBII025 (VHH, not shown: small tags and cut ends, Bivalent anti-VEGF VHH; also called VEGFBII10E07-40GS-23B04) EVQLVESGGGLVQAGGSLRLSCAASGRTFSNYAMGWFRQAPGKERVLVADISSSGINTYVADAVKGRFTISRDNAKNTVYLQMNSLKPEDTAVYYCAASAWWYSQMARDNYRYWGQGTQVTVSSGGGGSGGGGSGGGGSGGGGSGGGGSGGGGSGGGGSGGGGSEVQLVESGGGLVQTGDSLRLSCEVSGRTFSSYSMGWFRQAQGKEREFVVAISKGGYKYDSVSLEGRFTISKDNAKNTVYLQINSLKPEDTAVYYCASSRAYGSSRLRLADTYEYWGQGTQVTVSS | % inhibition [12]: 82%; IC50 [12]: 0.039 nM; IC50 [13]: 0.051 nM
 |  |  |  |  |  |  |  |  |  |  |  |  |  |  |  | DLLBII101G08 (VHH, not shown: small tags and cut ends, Anti-DLL4 VHH; also called 101G8) VHH: EVQLVESGGGLVQAGGSLRLSCAASGRTFSSYAMAWFRQAPGKEREFVAAIRWSGGTAYYADSVQGRFTISRDNAKNTVYLQMNSLKPEDTAVYYCANRAADTRLGPYEYDYWGQGTQVTVSS | IC50 [14]: 31 nM; IC50 [15]: 30.1 nM
